Biological target: amyloid beta-protein 40 (Aβ40) (human) (UniProt P05067)

Aβ40 content by Tricine-SDS-PAGE with quantitative scanning (solvent control defined as 100%): 74.8%
Substance: plasminogen isolated and purified from plasma of a human donator (enzyme)
